Ends that are not written are not given here.
molecular target: Fn N-terminal domain fragment (Fn-NTD) (human); assay: ITC
Sequence (chain, as listed by the source): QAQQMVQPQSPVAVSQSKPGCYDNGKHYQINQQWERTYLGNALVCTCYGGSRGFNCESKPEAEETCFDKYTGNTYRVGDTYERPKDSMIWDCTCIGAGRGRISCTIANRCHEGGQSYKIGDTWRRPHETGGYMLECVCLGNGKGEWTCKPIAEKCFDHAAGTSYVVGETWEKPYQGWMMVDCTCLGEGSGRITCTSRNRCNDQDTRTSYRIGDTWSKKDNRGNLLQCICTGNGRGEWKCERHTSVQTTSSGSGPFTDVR

Binder | Kd
NEKNGPIIQNNKFEYKEDTIKETLTGQYDKNLVTTVEEEYDS (domain or fragment, also: fused to GST carrier (carrier not in chain)) [GST-FnBPA-1] | 4.8 nM
GGGQVTTESNLVEFDEESTKGIVTGAVSDHTTVEDTK (domain or fragment, also: fused to GST carrier (carrier not in chain)) [GST-FnBPA-5] | 44 nM
SYQFGGHNSVDFEEDTLPKVSGQNEGQQTIEEDTTPP (domain or fragment, also: fused to GST carrier (carrier not in chain)) [GST-FnBPA-11] | < 1 nM
KYEQGGNIVDIDFDSVPQIHGQNKGNQSFEEDTEKDKP (domain or fragment, also: fused to GST carrier (carrier not in chain)) [GST-FnBPA-9] | 7.3 nM
KYEHGGNIIDIDFDSVPHIHGFNKHTEIIEEDTNKDKP (domain or fragment, also: fused to GST carrier (carrier not in chain)) [GST-FnBPA-10] | 20 nM
